# Source: patent US10370642B2, “Hematopoietic progenitor cell populations having affinity for E-selectin / L-selectin” (priority 2000, dated 2019)
# How the values were obtained:
# Assay type in all cases: cell-based
# P-selectin = target: T1, P-selectin (Homo sapiens, UniProt P16109); test: CHO-P cell rolling on immobilized immunoprecipitates, parallel-plate flow chamber; conditions: 2.8 dynes/cm^2
# T1 construct: CHO-P (CHO stably transfected with human cDNA encoding full length P-selectin); expressed in transfected cells
# T1 sequence (P16109 42-830): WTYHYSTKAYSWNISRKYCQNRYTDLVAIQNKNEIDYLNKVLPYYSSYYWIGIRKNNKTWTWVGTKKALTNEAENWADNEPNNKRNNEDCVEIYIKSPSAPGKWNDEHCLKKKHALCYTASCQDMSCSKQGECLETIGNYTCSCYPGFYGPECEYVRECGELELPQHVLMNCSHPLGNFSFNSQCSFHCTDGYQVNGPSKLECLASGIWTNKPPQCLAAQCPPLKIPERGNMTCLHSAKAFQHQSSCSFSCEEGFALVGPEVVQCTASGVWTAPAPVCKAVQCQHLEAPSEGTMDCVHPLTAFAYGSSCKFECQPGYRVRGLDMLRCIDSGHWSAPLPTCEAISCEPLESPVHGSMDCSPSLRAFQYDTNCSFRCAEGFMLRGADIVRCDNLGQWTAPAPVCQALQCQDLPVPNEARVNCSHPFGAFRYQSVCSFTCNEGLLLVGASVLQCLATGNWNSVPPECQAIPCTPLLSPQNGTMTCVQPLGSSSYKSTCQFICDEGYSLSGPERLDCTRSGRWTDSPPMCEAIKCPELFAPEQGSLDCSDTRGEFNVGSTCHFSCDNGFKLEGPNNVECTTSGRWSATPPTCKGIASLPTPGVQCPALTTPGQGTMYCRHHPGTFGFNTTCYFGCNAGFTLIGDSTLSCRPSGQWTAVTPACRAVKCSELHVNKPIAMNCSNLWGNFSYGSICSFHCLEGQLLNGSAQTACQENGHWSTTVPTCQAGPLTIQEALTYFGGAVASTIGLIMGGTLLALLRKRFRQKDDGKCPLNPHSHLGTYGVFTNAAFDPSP
# Method: CD44 or PSGL-1 immunoprecipitates were spotted onto plastic petri dishes, fixed in 3% glutaraldehyde and incubated in 0.2M lysine to block unreactive aldehyde groups, and then non-specific binding was prevented by incubating in 100% FBS for 1 hr at RT. Fixed spots were also treated with Vibrio cholerae neuraminidase (0.1 U/ml assay medium), which was overlaid onto the spots and incubated at 37° C. for 1 hr. The protein dishes were placed in the parallel-plate flow chamber and CHO-E, CHO-P (CHO stably transfected with human cDNA encoding full length P-selectin), CHO-P cells treated with function blocking anti-P-selectin moAb (clone AK-4; Pharmingen) (10 μg/ml), CHO-E cells treated with function blocking anti-E-selectin Abs (10 μg/ml) (clone 68-5H1 1) or Mock transfectants were perfused into the chamber (2×10^6/ml H/H/Ca++) at a flow rate of 0.2 ml/min until the cells were in contact with the substrate. The flow rate was then increased to achieve a shear stress of 2.8 dynes/cm^2. The frequency of cells rolling per 100× magnification field was determined, and data were expressed as the mean±standard deviation of 8 fields visualized from a minimum of 3 experiments.
# L-selectin [1] = test: Blot rolling assay with L-selectin-expressing lymphocytes; conditions: 2.3 dynes/cm^2
# Method: L-selectin-expressing lymphocytes were isolated as previously described (Oxley, S. M. & Sackstein, R. (1994). Blood. 84:3299-3306; Sackstein, R., Fu, L. and Allen, K. L. (1997) Blood. 89:2773-2781), washed twice in HBSS and suspended at 2×10^7/ml in HBSS/10 mM HEPES/2mMCaCl2 (H/H/Ca^++)/10% glycerol. Cell lysate material is separated by SDS-PAGE and transferred to PVDF under standard blotting conditions. Western blots of KG1a membrane preparations stained with HECA-452, A3D8 or Hermes-1 were rendered transparent by incubating them in H/H/Ca^++/10% glycerol. To study L-selectin-mediated adhesive interactions, the blots were placed in the parallel plate flow chamber and lymphocytes were perfused into the chamber at a shear force of 2.3 dynes/cm^2 and cellular adhesive interactions are observed by video microscopy and analyzed in real time.
# The number of lymphocytes rolling on and between each immunostained banding region was quantified from five independent fields under 200× magnification on the video monitor using molecular weight markers as guides to help align and visualize the proteins of interest. A minimum of 3 experiments were performed, and results were expressed as the mean of cell rolling/field.
# L-selectin [2] = test: Stamper-Woodruff assay of immunoprecipitated KG1a CD44 (Example 7); conditions: immunoprecipitate spotted onto glass slides
# Excerpt: To further analyze the L-selectin ligand activity of CD44, we performed Stamper-Woodruff assays using immunoprecipitated CD44 or isotype control (rat lgG)
# immunoprecipitates of KG1 a cells that was spotted onto glass slides as described (Sackstein, R. & Dimitroff, C. J. (2000). Blood. 96, 2765-2774).
# E-selectin = target: T2, E-selectin (Homo sapiens, UniProt P16581); test: Blot rolling assay with CHO-E cells; conditions: immunoprecipitated CD44 on Western blot; 3.8 dynes/cm^2
# T2 construct: stably transfected with full-length cDNA encoding human E-selectin; expressed in transfected cells
# T2 sequence (P16581 22-610): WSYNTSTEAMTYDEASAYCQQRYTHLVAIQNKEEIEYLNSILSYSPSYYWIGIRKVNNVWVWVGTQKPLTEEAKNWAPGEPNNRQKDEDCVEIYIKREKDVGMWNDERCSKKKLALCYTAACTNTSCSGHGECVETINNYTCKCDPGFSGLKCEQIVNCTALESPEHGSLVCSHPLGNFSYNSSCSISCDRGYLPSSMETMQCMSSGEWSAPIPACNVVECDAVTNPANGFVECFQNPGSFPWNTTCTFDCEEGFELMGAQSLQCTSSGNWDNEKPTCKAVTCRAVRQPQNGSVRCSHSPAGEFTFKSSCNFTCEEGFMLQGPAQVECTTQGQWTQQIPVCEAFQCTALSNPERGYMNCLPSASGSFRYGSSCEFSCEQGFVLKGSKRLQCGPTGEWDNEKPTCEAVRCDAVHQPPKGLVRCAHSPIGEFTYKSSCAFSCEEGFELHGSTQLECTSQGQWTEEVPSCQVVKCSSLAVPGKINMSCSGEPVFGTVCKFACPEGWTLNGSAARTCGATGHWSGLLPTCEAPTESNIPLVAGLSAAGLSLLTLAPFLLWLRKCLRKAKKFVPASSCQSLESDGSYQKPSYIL
# Method: The blot rolling assay was performed as previously described (Dimitroff et al., 2000). Briefly, CHO-E, CHO—P or CHO-Mock transfectants were isolated as described above, washed twice in HBSS and suspended at 10^7/ml in HBSS/10 mM HEPES/2mMCaCl2 (H/H/Ca++)/10% glycerol. Western blots of HPC membrane preparations stained with HECA-452 were rendered transparent by incubating them in H/H/Ca++/10% glycerol. The blots were then placed in the parallel-plate flow chamber, and CHO transfectants (2×10^6/ml) were perfused into the chamber. After allowing the cells to come in contact with the blotting membrane, the flow rate was adjusted to exert a shear stress of 3.8 dynes/cm^2. The viscosity of 10% glycerol adhesion assay medium was considered in the calculation of shear stress values. The number of cells rolling on and between each immunostained banding region was quantified under 100× magnification within each field of view on the video monitor using molecular weight markers (Kaleidoscope Molecular Weight Markers, Bio-Rad Lab.; See Blue® from Novex, Inc.) as guides to help align and visualize the apparent molecular weights of the proteins of interest. A minimum of 3 experiments was performed and results were expressed as the mean±SD of cell rolling/field at 100× magnification.
substance,measurement,setting,value
"KG1a CD44: glycoform of CD44 with HECA-452 reactive sialylated, fucosylated N-glycans, immunoprecipitated from KG1a cells with Hermes-1",P-selectin ligand activity (CHO-P cell rolling),P-selectin,not a P-selectin ligand
same,L-selectin ligand activity (lymphocyte tethering and rolling) in blot rolling assay,L-selectin [1],supported L-selectin ligand interactions
same,L-selectin-mediated lymphocyte adherence,L-selectin [2],362±15 bound cells/field
same,E-selectin ligand activity (CHO-E cell rolling) in blot rolling assay,E-selectin,possessed E-selectin ligand activity
